Patent US11858972B2, “Micropeptides and uses thereof” (FUNDACIÓ PRIVADA INSTITUT D'INVESTIGACIÓ ONCOLÒGICA DE VALL …, priority 2018, dated 2024)

How the values were obtained:
[1] = tested on: EMT regulators and adhesion factors in MIA PaCa-2 pancreatic cancer cell line; assay: EMT related gene expression by qPCR in MIA PaCa-2; type: cell-based; conditions: MIA PaCa-2, vs empty vector
Text: (§1) FIG. 15. Expression of the micropeptide of SEQ ID NO: 2 induces loss of mesenchymal identity in IMR90 (A), MIA PaCa-2 (B) and BxPC-3 (C) cell lines. mRNA levels of the indicated genes measured by qPCR. Values are relative to cells expressing the empty vector as a control. *P<0.05, **P<0.01, ***P<0.001 using Student's t-test for statistics. Error bars represent standard error of n=3 technical replicates.
(§2) Total RNA was extracted with Trizol® and treated with TURBO™ DNase following provider's recommendations. 1 μg of RNA was retrotranscribed using iScript™ cDNA Synthesis Kit (BioRad). Gene expression was analysed by quantitative real time PCR using PowerUp SYBR Green Master Mix (Thermo Fisher Scientific) in the 7900HT Fast Real-Time PCR System (Applied Biosystems). Cycle threshold (Ct) values were normalized to GAPDH.

MIA PaCa-2 cells = assay: Wound healing assay; type: cell-based; conditions: MIA PaCa-2, vs empty vector
Experimental: (§3) FIG. 17. The micropeptide of SEQ ID NO: 2 impairs migration capability of pancreatic cancer cell lines. Wound healing assay was performed in MIA PaCa-2 (A) and BxPC-3 (B) cells infected with MIDORI or empty vector. Phase contrast images show the wound at the indicated time points after the scratch was performed.
(§4) MIA PaCa-2 and BxPC-3 cells were trypsinized, counted, and 400,000 cells/well were seeded in 6-well plates. Next day, a pipette tip was used to scratch the surface of cell monolayer, forming a wound. An Olympus CeIIR microscope equipped with a Hamamatsu C9100 camera was used to follow the closure of the wound.

BxPC-3 cells = assay: Wound healing assay; type: cell-based; conditions: BxPC-3, vs empty vector
Experimental: as §3, §4

[2] = tested on: EMT regulators, adhesion factors and METALLOPROTEINASE-2 in murine pancreatic cancer associated fibroblasts (mCAFs); assay: EMT related gene expression by qPCR in mCAFs; type: cell-based; conditions: vs empty vector
Experimental: (§5) FIG. 16. Overexpression of the micropeptide of SEQ ID NO: 2 induces loss of mesenchymal identity. mRNA levels of the indicated genes were measured by qPCR in mCAFs (A-B) cells. Values are relative to cells expressing the empty vector as a control. *P<0.05; **P<0.01; ***P<0.001 using Student's t-test for statistics. Error bars represent standard error of n=3 technical replicates.
as §2

[3] = tested on: MDA-MB-231 breast cancer cell line; assay: Invasion assay (Boyden chamber, Matrigel); type: cell-based, human; conditions: MDA-MB-231, 24 hours after seeding, vs empty vector
Experimental: (§6) FIG. 22. Expression of the micropeptide of SEQ ID NO: 2 reduces cell invasion of breast cancer cells. (A) Invasion of MDA-MB-231 breast cancer cells transduced with micropeptide of SEQ ID NO: 2 or empty vector across matrigel-covered inserts. Representative pictures of invading cells 24 hours after seeding. (B) Relative number of invading cells±SD (n=3 technical replicates), as relative to invading cells in the empty vector conditions. * p<0.05, using Student's t-test.
(§7) BxPC-3, MDA-MB-231, A549 and H10 cell lines were trypsinized, counted, and 20.000 cells/well were seeded in triplicate in a Corning® cell culture insert (Boyden chamber) in which the porous membrane is coated with a layer of Matrigel® to mimic an extra cellular matrix (ECM). Cells were allowed to invade through the coated membrane for 24 hours in the cell incubator at 37° C. After the incubation time, culture inserts were fixed in methanol 5 minutes at RT and stained using Crystal Violet 20 minutes at RT. The excess of Crystal Violet staining was removed washing with PBS and pictures of the chambers were taken using an Olympus CeIIR microscope. Invading cells were counted using ImageJ and fold change was calculated normalizing to the control.

BxPC-3 cell line = assay: Invasion assay (Boyden chamber, Matrigel); type: cell-based; conditions: BxPC-3, 24 hours after seeding, vs empty vector
Experimental: as §6, with “18.” for “22.”, “impairs” for “reduces”, “in pancreatic” for “of breast”, “BxPC-3” for “MDA-MB-231 breast cancer”, “cells. Bars represent the average of two independent experiments±SD (n=2),” for “cells±SD (n=3 technical replicates),”
as §7

[4] = tested on: SLUG, ZEB1, ZEB2, VIMENTIN, E-CADHERIN and CYTOKERATIN-5 in MDA-MB-231; assay: Mesenchymal and epithelial gene expression by qPCR in MDA-MB-231; type: cell-based, human; conditions: MDA-MB-231, vs empty vector
Experimental: as §5, with “21.” for “16.”, “MDA-MB-231 cell line.” for “mCAFs (A-B) cells.”
as §2

[5] = tested on: EMT regulators and adhesion factors in BxPC-3 pancreatic cancer cell line; assay: EMT related gene expression by qPCR in BxPC-3; type: cell-based; conditions: BxPC-3, vs empty vector
Text: as §1, §2

[6] = tested on: EMT regulators and adhesion factors in human primary fibroblasts (IMR90); assay: EMT related gene expression by qPCR in IMR90; type: cell-based; conditions: vs empty vector
Text: as §1, §2

[7] = tested on: PDAC pancreatic cancer cells co-cultured with CAFs; assay: CAFs pro-invasive activity, co-culture with PDAC cells in Matrigel coated inserts; type: cell-based, mice; conditions: micropeptide expressed in CAFs in bottom compartment, PDAC cells co-cultured 24 h
Experimental: FIG. 19. Expression of the micropeptide of SEQ ID NO: 2 reduces pro-tumoral activity of mCAFs cells. (A) Invasion of WT PDAC pancreatic cancer cells across matrigel-covered inserts where mCAFs expessing the micropeptide of SEQ ID NO: 2 or empty vector were seeded in the bottom compartment of the Boyden chambers. Representative pictures of invading cells 24 hours after seeding. (B) Relative number of invading cells.±SD (n=3 technical replicates), as relative to invading cells in the empty vector conditions.
BxPC-3 and A549 cell lines were cultured in RPMI supplemented with 10% of FBS and penicillin-streptomycin. Patient derived-H10 skin squamous cell carcinoma cell line was cultured in DMEM-F12 supplemented with B27 and penicillin-streptomycin. Cancer associated fibroblasts (CAFs) and PDAC cell lines were derived from LSL^−KrasG12D/+;LSL-Trp53R172H/+;Pdx-1-Cre mice and cultured in DMEM-F12 supplemented with 10% FBS and penicillin-streptomycin. All the other cell lines were cultured in DMEM supplemented with 10% of FBS and penicillin streptomycin. Cultures were routinely tested for mycoplasma and were always negative.
In order to test CAFs pro-invasive activity, 40.000 CAFs/well were seeded in 24-well plates. 48 h later, PDAC cells were trypsinized, counted, and 20.000 cells were seeded in the upper compartment of Matrigel® coated inserts that were placed over CAFs containing wells. […]

[8] = tested on: HCT116, human colorectal cancer; assay: Cell death after retroviral overexpression (phase contrast images); type: cell-based
Text: (§8) FIG. 23. Overexpression of the micropeptide of SEQ ID NO: 3 in cancer cell lines. (A) Analysis of SEQ ID NO: 3 overexpression by qPCR in A459 cells. (B) Detection of SEQ ID NO: 3 micropeptide expression in A459 cells by Western blot. (C) Phase contrast images of the indicated cell lines after SEQ ID NO: 3 overexpression.

A549, human lung cancer = assay: as above; type: cell-based
Text: as §8

p21 [9] = assay: p21 expression by qPCR in A549; type: cell-based, human; conditions: A459 cells
Experimental: (§9) FIG. 24. Overexpression of the micropeptide of SEQ ID NO: 3 induces p21 upregulation and a pro-apoptotic program (A) qPCR analysis of p21 expression in HCT116 and A549 cancer cell lines upon SEQ ID NO: 3 overexpression. (B) Western blot analysis of p21 protein in A549 SEQ ID NO: 3-overexpressing cells. Cells treated with Nutlin-3 (10 μM) were used as positive control for p21 upregulation. (C) qPCR analysis of the indicated apoptosis-related genes in SEQ ID NO: 3-overexpressing HCT116 cells.
as §2

p21 [10] = assay: p21 expression by qPCR in HCT116; type: cell-based, human; conditions: HCT116 cells
Experimental: as §9, §2

p21 protein = p21 protein by Western blot in A549; type: cell-based, human
Experimental: as §9
Cells pellets (4-5*10^6 cells) were homogenized in medium-salt lysis buffer (150 mM NaCl, 50 mM Tris pH 8, 1% NP40 and protein inhibitors cocktail). 50 μg of protein was loaded per lane in a 12% acrylamide gel and electrophoresed in Tris-Glycine SDS Running Buffer. The following antibodies were used: Anti-HA-Tag (Abcam, 1:5000), Anti-p53 (Santa Cruz, 1:1000), Anti-p21 (Thermo Fisher, 1:1000), Anti-GAPDH (Thermo Fisher, 1:5000).

BAX, BAK and BCL-2 = assay: Apoptosis-related gene expression by qPCR in HCT116; type: cell-based, human; conditions: HCT116 colorectal cancer cell line
Experimental: as §9, §2

B1: SEQ ID NO: 2: 64-amino acid micropeptide encoded by ZEB2 antisense 1 (ZEB2AS1) long non-coding RNA (protein, listed as Homo sapiens)
chain: MVRRKSMKKPRSVGEKKVEAKKQLPEQTVQKPRQECREAGPLFLQSRRETRDPETRATYLCGEG
[1]
  expression of EMT regulators SNAIL, SLUG, ZEB1, ZEB2, TWIST1 and VIMENTIN (if expressed) and adhesion factors COLLAGEN I, COLLAGEN IV, CD44 and FIBRONECTIN: downregulation
MIA PaCa-2 cells
  migration capability in wound healing assays: decreased migration capability
BxPC-3 cells
  migration capability in wound healing assays: decreased migration capability
[2]
  expression of EMT regulators SNAIL, SLUG, ZEB1, ZEB2, TWIST1 and VIMENTIN (if expressed) and adhesion factors COLLAGEN I, COLLAGEN IV, CD44 and FIBRONECTIN: downregulation
  expression of METALLOPROTEINASE-2: downregulation
[3]
  invasion capability: decreased invasion capability
BxPC-3 cell line
  invasion: decreased invasion
[4]
  expression of epithelial markers E-CADHERIN and CYTOKERATIN-5: upregulation
  expression of the EMT regulators SLUG, ZEB1, ZEB2 and VIMENTIN: downregulation
[5]
  expression of EMT regulators SNAIL, SLUG, ZEB1, ZEB2, TWIST1 and VIMENTIN (if expressed) and adhesion factors COLLAGEN I, COLLAGEN IV, CD44 and FIBRONECTIN: downregulation
[6]
  expression of EMT regulators SNAIL, SLUG, ZEB1, ZEB2, TWIST1 and VIMENTIN (if expressed) and adhesion factors COLLAGEN I, COLLAGEN IV, CD44 and FIBRONECTIN: downregulation
[7]
  pancreatic cancer cell invasion (non-cell autonomous): reduces pancreatic cancer cell invasion

B2: SEQ ID NO: 3: 78-amino acid micropeptide encoded by the first exon of LINC0086 lncRNA (protein, listed as Homo sapiens)
chain: MAASAALSAAAAAAALSGLAVRLSRSAAARGSYGAFCKGLTRTLLTFFDLAWRLRMNFPYFYIVASVMLNVRLQVRIE
[8]
  cell death: massive cell death
A549, human lung cancer
  cell death: massive cell death
p21 [9]
  p21 expression (qPCR): substantial p21 upregulation
p21 [10]
  p21 expression (qPCR): substantial p21 upregulation
p21 protein
  p21 protein levels: increased p21 protein levels
BAX, BAK and BCL-2
  expression of the antiapoptotic gene BCL-2: downregulation
  expression of the pro-apoptotic genes BAX and BAK: upregulation
